Data: the RNAGym collection of RNA variant scans (doi:10.7554/elife.80360)

B1: HDV Ribozyme (parent)
chain: GGCCGGCAUGGUCCCAGCCUCCUCGCUGGCGCCGGCUGGGCAACAUUCCGAGGGGACCGUCCCCUCGGUAAUGGCGAAUGGGACCCA

Variants of: B1
Assay: self-cleavage, relative activity (ratio to wild type); higher = more cleavage; co-transcriptional
In the case of GGCCGGCAUGGUCCCAGCCUCCUCGCUGGCGCCGGCUGGGCUACAUUCCGAGGAGACCGUCCCCUCGGUAAUGGCGAAUGGGACCCA [A42U G54A], the self-cleavage is reported as 0.441. In the case of GGCCGGCAUGGUCCCAGCCUCCUCGCUGCCGCCGGCUGGGCAACGUUCCGAGGGGACCGUCCCCUCGGUAAUGGCGAAUGGGACCCA [G29C A45G], the self-cleavage is reported as 0. GGCCGGCAUGGUCCCCGCCUCCUCGCUGGCGCCGGCUGGGCAACAUUCCGAGGGGACCUUCCCCUCGGUAAUGGCGAAUGGGACCCA [A16C G59U] showed a self-cleavage of 0.808. Work on GGCCGGCAUGGUCCCAGACUCCUCGCUGGCGCCGGCUGGGCAACAUUCCGAGGGGACCGUCCCUUCGGUAAUGGCGAAUGGGACCCA [C18A C64U] yielded a self-cleavage of 0.256. In the case of GGCCGUCAUGGUCCCAGCCUCCUCGCUGGCGCCAGCUGGGCAACAUUCCGAGGGGACCGUCCCCUCGGUAAUGGCGAAUGGGACCCA [G6U G34A], the self-cleavage is reported as 0.208. With GGCCGGCAUGGUCCCAGCCUACUCGCUGGCGCCGGCUGGGCAACAUUCCGAGGGGAGCGUCCCCUCGGUAAUGGCGAAUGGGACCCA [C21A C57G] the self-cleavage was 0.0811. With GGCCGGCAUGGUCCCAGCCUCCUCGCUGGCGCCGGCUCGGCAACAUUCCGAGGGGACCGGCCCCUCGGUAAUGGCGAAUGGGACCCA [G38C U60G] the self-cleavage was 0.113. In the case of GGCCGGCAUGGUCCCAGCCUCCUCGCUGGCGCCGGCGGGGCAACAUUCCGAGGGGACCGUCCCCUCGGUAAUAGCGAAUGGGACCCA [U37G G73A], the self-cleavage is reported as 0. In the case of GGCCGGCAUGGUCCCAGCCUCCUCGCUGGCGCCGGCUGGGCAACAUUCCGAGGGGACAGUCCCCUCGGUAAUGGCGAAAGGGACCCA [C58A U79A], the self-cleavage is reported as 0.789. With GGCCGGCUUGGUCCCAGCCUCCUCGCUGGCGCCGGCUGGGCAACAAUCCGAGGGGACCGUCCCCUCGGUAAUGGCGAAUGGGACCCA [A8U U46A] the self-cleavage was 0.415. Work on GGCCGGCAUGGUCCCAGCCUCCUCGAUGGCGCCGGCUGGGCAACAUUCCGAGGGGACCGUCCCCUCGGUAAUGGCGAAUGGGACCCG [C26A A87G] yielded a self-cleavage of 0.864. With GGCCGGCAUGGUCCCAGCCUCCUCGCUGGCGCCGGCUGGGCAACAUUCCGAGGGGACCGUCCCCUCGGUAAUGGCGAAUCCGACCCA [G80C G81C] the self-cleavage was 0.186. Variant GGCCGGCAUGGUCCCAGCCUCGUCGCUGGCGCCGGCUGGGCAACAUUCCGAGGGGACCGUCCCCUCGGUAAUGGCGAAUGGAACCCA [C22G G82A] has a self-cleavage of 0.0723. Variant GGCCGGCAUGGUCCCAGCCGCCUCGCUGGCGCCGGCUGGGCAACAUUCCGAGGGGACCGUCCCCUCGGUAAUGGCGAAUGGGACCAA [U20G C86A] has a self-cleavage of 0.237. For GGCCGGCAUGGACCCAGCCUCCUCGCUGGCGCCGGCUGGUCAACAUUCCGAGGGGACCGUCCCCUCGGUAAUGGCGAAUGGGACCCA [U12A G40U], the self-cleavage was 0.111. GGCCGGCAUGGUCCCAGCCUCCUCGCUGGCGCCGGCUUGGCAACAUUCCGAGGGGACCGUCCCCUCGGUAAUGGCGAAUGGGACGCA [G38U C85G] gave a self-cleavage of 0.295. GGCCGGCAUGGUCCCAGCCUCCUCGCUGGCGCCGGCUGGGCAACCUUCCGAGGUGACCGUCCCCUCGGUAAUGGCGAAUGGGACCCA [A45C G54U] showed a self-cleavage of 0.95. GGCCGGCAUGGUCCCAGCCUCCUCGCUGGCGCCGGCUGGGCAACCUUCCGAGGGGACCGUCCCCUCGGUAAUGGCGAUUGGGACCCA [A45C A78U] gave a self-cleavage of 0.229. Work on GGCCGGCAUGGUCCCAGCCUCCUCGCUGGCGCCGGCUGGGCAACAUUCCGAUGGGACCGCCCCCUCGGUAAUGGCGAAUGGGACCCA [G52U U60C] yielded a self-cleavage of 0.961. GGCCGGCAUGGUCCCAGCCUCCUCGCUGGCGCCGACUGGGCAACAUUCUGAGGGGACCGUCCCCUCGGUAAUGGCGAAUGGGACCCA [G35A C49U] showed a self-cleavage of 0.596. Work on GGCCGGCAUGGUCCCAGCGUCCUCGCUGGCGUCGGCUGGGCAACAUUCCGAGGGGACCGUCCCCUCGGUAAUGGCGAAUGGGACCCA [C19G C32U] yielded a self-cleavage of 0.0302. For GGCCGGCAUGGUCCCAGCCUCCUCGCUGGCGCCGGCUGGGCAACAUUCCUAGGGGACAGUCCCCUCGGUAAUGGCGAAUGGGACCCA [G50U C58A], the self-cleavage was 0.997. With GGCCGGCAUGGUCCCAGCCUCCUCGCUGGCGCCAGCUGGGCAACAUUCCGAGGGGACCGUCCCCUCGGUAAUGGCGAAUGGGACUCA [G34A C85U] the self-cleavage was 0.163. Variant GGCCGGCAUGGUCCCAGCCUCCUCGCUGCCGCCGGCUGGGCAACAUUCCGAGGGGACCGUCCCCUCGGUCAUGGCGAAUGGGACCCA [G29C A70C] has a self-cleavage of 0.0536. For GGCCGGCAUGGUCGCAGCAUCCUCGCUGGCGCCGGCUGGGCAACAUUCCGAGGGGACCGUCCCCUCGGUAAUGGCGAAUGGGACCCA [C14G C19A], the self-cleavage was 0. With GGCCGGCAUCGUCCCAGCCUCCUCGCUGGCGCCGGCUGGGCAACAUUCCGGGGGGACCGUCCCCUCGGUAAUGGCGAAUGGGACCCA [G10C A51G] the self-cleavage was 0.72. Variant GGCCGGCAUGGUCCCAGCCUCCUCGCUGGCGCCGGCUGGGCAACAUUCCGAGGGGACCGUCCCCUCGGUAAUGGCGAAUCGGGCCCA [G80C A83G] has a self-cleavage of 0.102. GGCCGGCAGGGUCCCAGCCUCCUCGCUGGCGCCGGCUGGGCAACAUUCCGAGGGGACCUUCCCCUCGGUAAUGGCGAAUGGGACCCA [U9G G59U] showed a self-cleavage of 1.06. Work on GGCCGGCAUGUUCCCAGCCUCCUCGCCGGCGCCGGCUGGGCAACAUUCCGAGGGGACCGUCCCCUCGGUAAUGGCGAAUGGGACCCA [G11U U27C] yielded a self-cleavage of 0.388. GGACGGCAUGGUCCCAGCCUCCUCGCUGGCGCCGGCUGGGCAACAUUCCGAGGGGACCGUCCCCUCGGUAAUGGCGAAUGGUACCCA [C3A G82U] showed a self-cleavage of 0.0831. Variant GGCCGGCAUGGUCCCAGCCUCCUCGCUGGCGCCGGCUGGGCAACAUUCCGAGGGGACCGUCCCGUCGGUAAUGGCGAACGGGACCCA [C64G U79C] has a self-cleavage of 0.623. Variant GGCCGGCAUGGUCCCAGCCUCCUCUCUGGCGCCGGCUGGGCAACAUUCCGCGGGGACCGUCCCCUCGGUAAUGGCGAAUGGGACCCA [G25U A51C] has a self-cleavage of 0.135.
